According to patent publication US20140328841A1 (BRIGHAM AND WOMEN S HOSPITAL, published 2014):

T1: mouse CEACAM1 (mouse, UniProt P31809 35-521, limits assumed)
T1 sequence (looked up): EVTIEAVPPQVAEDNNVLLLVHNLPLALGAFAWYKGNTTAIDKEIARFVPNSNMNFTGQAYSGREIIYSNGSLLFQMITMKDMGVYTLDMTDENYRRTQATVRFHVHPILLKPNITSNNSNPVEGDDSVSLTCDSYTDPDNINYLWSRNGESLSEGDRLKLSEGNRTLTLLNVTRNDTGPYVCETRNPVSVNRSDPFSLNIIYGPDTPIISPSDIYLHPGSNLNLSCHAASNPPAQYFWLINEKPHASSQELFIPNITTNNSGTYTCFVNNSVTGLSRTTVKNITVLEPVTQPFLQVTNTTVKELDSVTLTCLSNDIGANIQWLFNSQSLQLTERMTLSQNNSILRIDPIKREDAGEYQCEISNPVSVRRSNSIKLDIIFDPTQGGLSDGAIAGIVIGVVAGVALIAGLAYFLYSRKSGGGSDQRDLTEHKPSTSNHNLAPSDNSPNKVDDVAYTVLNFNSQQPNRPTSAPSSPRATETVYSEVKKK


Columns and labels:
[1] = target: T1, mouse CEACAM1; assay: flow cytometry dot plot (x: mIgG1 CONTROL, y: FITC). Cells of the 5F4-treated mouse group, isotype control staining for the 5F4 panel above it.
[2] = target: human CEACAM1 (human) (UniProt P13688); assay: flow cytometry dot plot (x: mIgG1 CONTROL, y: FITC). Cells of the MOPC-treated mouse group, isotype control staining for the 5F4 panel above it.
Sequence of human CEACAM1 (human) (P13688 35-526): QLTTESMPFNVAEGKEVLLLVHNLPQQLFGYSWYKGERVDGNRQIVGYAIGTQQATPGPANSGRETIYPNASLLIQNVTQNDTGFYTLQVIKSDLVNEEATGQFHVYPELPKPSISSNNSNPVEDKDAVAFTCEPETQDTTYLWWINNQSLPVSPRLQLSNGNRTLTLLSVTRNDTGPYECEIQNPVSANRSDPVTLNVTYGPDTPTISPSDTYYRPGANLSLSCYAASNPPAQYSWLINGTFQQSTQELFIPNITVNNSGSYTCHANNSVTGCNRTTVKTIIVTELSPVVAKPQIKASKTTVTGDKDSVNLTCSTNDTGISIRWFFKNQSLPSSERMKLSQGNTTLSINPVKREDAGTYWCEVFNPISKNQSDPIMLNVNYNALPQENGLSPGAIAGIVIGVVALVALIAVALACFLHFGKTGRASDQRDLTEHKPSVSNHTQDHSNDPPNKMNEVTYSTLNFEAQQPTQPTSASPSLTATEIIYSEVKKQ

[3] = target: T1, mouse CEACAM1; assay: flow cytometry, 5F4 staining of lymph node cells of the 5F4-treated mouse group (mouse cells; per the legend no human CEACAM1+ cells present)
[4] = target: human CEACAM1 (human) (UniProt P13688); assay: flow cytometry dot plot (x: hCEACAM1 (5F4), y: FITC). Per the legend, axillary lymph node cells of an MOPC-treated Rag2-/- mouse 2 weeks after s.c. AsPc-1 inoculation. Gated events spread from about 10^3 to above 10^4 on the x axis. The panel is marked *.

Molecule | number printed in the same gate of the dot plot [1] | number printed in the same gate of the dot plot [2] | binding result [3] | number printed in the hCEACAM1 (5F4)-positive gate of the dot plot [4]
mIgG1 CONTROL (antibody) | 1.27 | 0.667 |  | 
5F4 mouse anti-human CEACAM1 monoclonal antibody (hybridoma 5F4/2C6/2H3) (antibody, mouse IgG1, V domains shown, also called 5F4 antibody; 5F4 monoclonal antibody) VH: EVQLVESGGDLVKPGGSLKLACAASGFIFSSHGMSWVRQTPDKRLEWVATISSGGTYTYYPDSVKGRFTISRDNDKNTLYLQMNSLKSEDTAMYYCARHDFDYDAAWFAYWGQGTLVTVSA VL: QIVLTQSPALMSASPGVKVTMTCSANSSVSYMYWYRQKPRSSPKPWIYLTSNLASGVPARFSGSGSGTSYSLTISSMEAEDAATYYCQQWSSNPPTFGSGTKLEIK |  |  | no binding | 2.15
